Measured values published in article PMC3360023, “Identification and Characterisation of a Novel Acylpeptide Hydrolase from Sulfolobus Solfataricus: Structural and Functional Insights” (PLoS ONE, 2012).
Each block holds one molecule with its values, some of them ahead of it.

How the values were obtained:
[1] = biological target: APEH-3Ss, acylpeptide hydrolase from Sulfolobus solfataricus coded by the gene sso2693 (Sulfolobus solfataricus P2); test: SEC; Superose 12 3.2/30; enzyme treated with 0.5 M GnHCl, column equilibrated with Tris-HCl 0.05 M pH 7.5 containing 0.5 M GnHCl
[2] = biological target: APEH-3Ss, acylpeptide hydrolase from Sulfolobus solfataricus coded by the gene sso2693 (Sulfolobus solfataricus P2); test: SEC; Superose 12 3.2/30; enzyme treated with 0.5 M GnHCl, then dialysed extensively against Tris-HCl 0.05 M pH 7.5 before gel filtration
[3] = biological target: APEH-3Ss, acylpeptide hydrolase from Sulfolobus solfataricus coded by the gene sso2693 (Sulfolobus solfataricus P2); test: SEC; gel filtration of the native purified enzyme on two columns (Superdex 200 HR 10/30; Superose 12 PC 3.2/30), calibrated with BioRad gel filtration standards
purified protein [4] = substrate: CC(=O)N[C@@H](C)C(=O)Nc1ccc([N+](=O)[O-])cc1; test: purified protein; assay type: biochemical, Saccharolobus solfataricus; conditions: 25 mM Tris-HCl pH 7.5, 90°C
purified protein [5] = substrate: CC(=O)N[C@@H](Cc1ccccc1)C(=O)Nc1ccc([N+](=O)[O-])cc1; test: purified protein; assay type: biochemical, Saccharolobus solfataricus; conditions: 25 mM Tris-HCl pH 7.5, 90°C
purified protein [6] = substrate: CC(=O)N[C@@H](CC(C)C)C(=O)Nc1ccc([N+](=O)[O-])cc1; test: purified protein; assay type: biochemical, Saccharolobus solfataricus; conditions: 25 mM Tris-HCl pH 7.5, 90°C
[7] = biological target: APEH-3Ss, acylpeptide hydrolase from Sulfolobus solfataricus coded by the gene sso2693 (Sulfolobus solfataricus P2)

stoichiometry N [1]: 2
stoichiometry N [2]: 3
stoichiometry N [3]: 3
Molecule: APEH-3Ss, acylpeptide hydrolase from Sulfolobus solfataricus coded by the gene sso2693 (enzyme)

B1: APEH-3Ss (Saccharolobus solfataricus P2) (protein)
chain: MKPEDYYYSIKLVPEITIENGKLFHVETWIEEDKYKSSIYLNLKRITFQGNESSPKFNNDKLYFIRNEEAKSSLLEAQLYGEPKVIFTFSGKISKYEFHNKGILVIAEENTDKTLPFRAEKIKYRFDSRGLLRARQSLYLFDGKDLRRLVTGNFDVTDLATNGNRVVISATKDGDDYGLGNLYEVNIETGELNRITKEDGTVQAIAMNSEGKIAFLGHRKGLTPWASLEIMLPEEGKSYMCGKTCGNKVLTDLFDGVKDRIVFEKDLILSLGQEGGTSHIYQISDNKVDKVTSGNIMVRGFDYSNSELAYFYSTPEKPVILKYRDIEYDPNPNIKGYTPERITVNSNGVEVEGWSIIKDPNAPTILFIHGGPHMAYGYGYFIEFQFFVDNGFNVIYANPRGSQGYGEEFAKACVGDWGGKDFEDLMNFVNTVKERYSLKGKFGITGGSYGGFMTNWIVTKTSMFSAAISERSISNLVSMCGTSDIGFWFNAIESGIADPWSTEGIEKLMKMSPIYYVKNVKTPTMLIHGEEDYRCPIEQAEQFYVALKMQGVPTTLVRYQGDSHEHARRGKPKNMIDRLKTKLEWFSKYLL
notes: native enzyme purified from S. solfataricus P2 cells; full length 591 aa, not processed; N-terminus MKPEDYYYSI; 64 kDa by SDS-PAGE; homotrimer 192 kDa
Km (purified protein [4]): 800 ± 60 µM
kcat (purified protein [4]): 14 ± 0.1 s⁻¹
kcat/Km (purified protein [4]): 17500 ± 100 M⁻¹ s⁻¹
Km (purified protein [5]): 40 µM
kcat (purified protein [5]): 0.08 ± 0.005 s⁻¹
kcat/Km (purified protein [5]): 2000 ± 10 M⁻¹ s⁻¹
Km (purified protein [6]): 600 ± 50 µM
kcat (purified protein [6]): 18 ± 0.1 s⁻¹
kcat/Km (purified protein [6]): 32700 ± 400 M⁻¹ s⁻¹

IC50 of inhibition of APEH-3Ss activity on Ac-L-pNA (0.2 mM); protease pre-incubated with increasing SsCEI for 30 min at 80°C, Tris-HCl 50 mM pH 7.5 [7]: 0.008 µM
IC50 of inhibition of APEH-3Ss activity on Suc-GGF-pNA (0.2 mM); protease pre-incubated with increasing SsCEI for 30 min at 80°C, Tris-HCl 50 mM pH 7.5 [7]: 0.02 µM
B2: SsCEI (Sulfolobus solfataricus chymotrypsin-elastase inhibitor) (natural protein)
chain: MNSESIYSMRVVSSAFKNEDFIPIKYTCDGQDLSPELEWDLVTNAKSYAIIVEDPDAPGGTFIHWVIYNITTNRLPEGVPRLYKSQYGVQGVNDFGNIGYNGPCPPKTHPPHRYYFYVYAIDTILLEIKNINADKLKSLMEGHGIERGFVMGKYKRK
